According to US20260201039A1:

Target: human CD28 in its native form displayed on the cell surface (human) (UniProt P10747)
Experiment: cell-based or functional assay

TGN1412 (IgG4) (antibody)
IL2 secretion, PBMC of 20 donors on plate-coated protein, 72 h: < 80000 pg/mL
